Assay results taken from patent US20240010684A1, “MASP INHIBITORY COMPOUNDS AND USES THEREOF” (BAYER AKTIENGESELLSCHAFT, priority 2020, published 2024).
Bridges are numbered along the chain shown (N, C = ends). [ ]: non-standard residue; d: D form. Oic = O=C(O)[C@@H]1C[C@@H]2CCCC[C@@H]2N1; Trx = NC[C@H]1CC[C@H](C(=O)O)CC1; tBuAla = CC(C)(C)C[C@H](N)C(=O)O; Pen = CC(C)(S)[C@H](N)C(=O)O; NMeC = CN[C@@H](CS)C(=O)O; Abu = CC[C@H](N)C(=O)O; Ahx = NCCCCCC(=O)O; GABA = NCCCC(=O)O; Sar = CNCC(=O)O

T1: recombinant human MASP1 (amino acids 297-699, C-terminal His Tag) (human) (UniProt P48740)
T1 sequence: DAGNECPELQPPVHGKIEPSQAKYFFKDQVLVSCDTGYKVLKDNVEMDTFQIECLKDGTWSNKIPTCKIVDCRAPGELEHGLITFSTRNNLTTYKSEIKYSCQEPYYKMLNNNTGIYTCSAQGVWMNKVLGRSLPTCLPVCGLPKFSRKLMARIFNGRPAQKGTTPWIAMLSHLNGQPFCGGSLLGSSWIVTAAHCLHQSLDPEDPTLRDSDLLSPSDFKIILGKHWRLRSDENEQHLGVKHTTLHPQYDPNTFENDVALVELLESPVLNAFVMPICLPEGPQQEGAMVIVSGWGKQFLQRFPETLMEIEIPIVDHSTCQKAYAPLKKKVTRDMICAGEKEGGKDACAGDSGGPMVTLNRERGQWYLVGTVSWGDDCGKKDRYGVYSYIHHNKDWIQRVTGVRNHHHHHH

T2: recombinant rat MASP1 (amino acids 302-704, C-terminal His Tag) (rat), Q8CHN8
T2 chain: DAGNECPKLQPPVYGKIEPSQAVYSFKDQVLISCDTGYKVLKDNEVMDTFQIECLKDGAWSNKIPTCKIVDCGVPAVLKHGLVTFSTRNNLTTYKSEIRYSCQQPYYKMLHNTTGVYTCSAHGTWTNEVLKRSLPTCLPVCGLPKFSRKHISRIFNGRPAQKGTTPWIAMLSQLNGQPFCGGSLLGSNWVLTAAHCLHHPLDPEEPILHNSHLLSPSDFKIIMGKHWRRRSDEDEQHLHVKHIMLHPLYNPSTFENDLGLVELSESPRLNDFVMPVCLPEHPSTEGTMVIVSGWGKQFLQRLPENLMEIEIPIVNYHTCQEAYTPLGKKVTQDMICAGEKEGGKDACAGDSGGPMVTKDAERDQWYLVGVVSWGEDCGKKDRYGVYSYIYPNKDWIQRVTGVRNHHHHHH

T3: recombinant human MASP1 (amino acids 297-699, C-terminal His Tag) (human), P48740
T3 chain: T1 sequence


Target: T1, recombinant human MASP1 (amino acids 297-699, C-terminal His Tag) (human)
Assay: cell-based or functional assay

Row | Binder | human MASP1 IC50
1 | cyclo([Ahx][Abu]ICSRS[tBuAla]PPI[NMeC]IPD) (disulfide 4-12; also: TFA salt) [Example 33: (Ahx)**-(Abu)-IC+SRS-((tBu)A)-PPI-((N-Me)C)+-IPD**] | 28 nM
2 | cyclo([Ahx]GICSRS[tBuAla]PPI[NMeC]IPD) (disulfide 4-12; also: TFA salt) [Example 30: (Ahx)**-GIC+SRS-((tBu)A)-PPI-((N-Me)C)+-IPD**] | 16 nM
3 | cyclo(AGAICSRS[tBuAla]PPI[NMeC]IPD) (disulfide 5-13; also: TFA salt) [Example 31: A**GAIC+SRS-((tBu)A)-PPI-((N-Me)C)+-IPD**] | 16 nM

More lines, now with the values ahead:

Row | human MASP1 IC50 | Binder
4 | 8.7 nM | cyclo([GABA]ICSRS[tBuAla]PPI[NMeC]IPD) (disulfide 3-11; also: TFA salt) [Example 36: (Gamma-Abu)**-IC+SRS-((tBu)A)-PPI-((N-Me)C)+-IPD**]
5 | 9.7 nM | [Ahx][Sar]GICSRSLP[Oic]I[Pen]IPE-NH2 (disulfide 5-13; lactam N-16; also: TFA salt) [Example 76: (Ahx)**-((N-Me)G)-GIC+SRSLP-(Oic)-I-(Pen)+-IPE++-NH2]
6 | 7.1 nM | [Ahx]GICSRS[tBuAla]PPI[NMeC]IPD-NH2 (disulfide 4-12; lactam N-15; also: TFA salt) [Example 40: (Ahx)**-GIC+SRS-((tBu)A)-PPI-((N-Me)C)+-IPD++-NH2]
7 | 20 nM | G[Trx]GICSRS[tBuAla]PPI[NMeC]IPD-NH2 (disulfide 5-13; lactam N-16; also: TFA salt) [Example 69: G**-(TXA)-GIC+SRS-((tBu)A)-PPI-((N-Me)C)+-IPD++-NH2]

Target: recombinant human MASP2 (amino acids 297-686, C-terminal His Tag) (human) (UniProt O00187)
Assay: cell-based or functional assay

recombinant human MASP2 (amino acids 297-686, C-terminal His Tag) (human), sequence (O00187 other isoform, or with tags, fused parts or gaps limits assumed): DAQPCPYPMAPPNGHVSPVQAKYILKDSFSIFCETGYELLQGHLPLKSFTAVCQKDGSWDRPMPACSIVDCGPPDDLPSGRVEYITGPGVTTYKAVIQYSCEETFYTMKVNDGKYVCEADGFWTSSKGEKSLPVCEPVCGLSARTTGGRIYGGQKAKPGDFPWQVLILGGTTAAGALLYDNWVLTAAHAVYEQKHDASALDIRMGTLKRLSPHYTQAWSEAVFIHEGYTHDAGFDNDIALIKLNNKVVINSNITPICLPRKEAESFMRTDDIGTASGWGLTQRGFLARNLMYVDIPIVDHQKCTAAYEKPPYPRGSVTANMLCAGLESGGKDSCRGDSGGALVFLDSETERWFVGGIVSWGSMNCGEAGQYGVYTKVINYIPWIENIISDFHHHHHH

Row | Binder | human MASP2 IC50
8 | cyclo([Ahx][Abu]ICSRS[tBuAla]PPI[NMeC]IPD) (disulfide 4-12; also: TFA salt) [Example 33: (Ahx)**-(Abu)-IC+SRS-((tBu)A)-PPI-((N-Me)C)+-IPD**] | 62 nM
9 | cyclo([Ahx]GICSRS[tBuAla]PPI[NMeC]IPD) (disulfide 4-12; also: TFA salt) [Example 30: (Ahx)**-GIC+SRS-((tBu)A)-PPI-((N-Me)C)+-IPD**] | 65 nM
10 | cyclo(AGAICSRS[tBuAla]PPI[NMeC]IPD) (disulfide 5-13; also: TFA salt) [Example 31: A**GAIC+SRS-((tBu)A)-PPI-((N-Me)C)+-IPD**] | 130 nM

Continued, values first:

Row | human MASP2 IC50 | Binder
11 | 110 nM | cyclo([GABA]ICSRS[tBuAla]PPI[NMeC]IPD) (disulfide 3-11; also: TFA salt) [Example 36: (Gamma-Abu)**-IC+SRS-((tBu)A)-PPI-((N-Me)C)+-IPD**]
12 | 180 nM | [Ahx][Sar]GICSRSLP[Oic]I[Pen]IPE-NH2 (disulfide 5-13; lactam N-16; also: TFA salt) [Example 76: (Ahx)**-((N-Me)G)-GIC+SRSLP-(Oic)-I-(Pen)+-IPE++-NH2]
13 | 90 nM | [Ahx]GICSRS[tBuAla]PPI[NMeC]IPD-NH2 (disulfide 4-12; lactam N-15; also: TFA salt) [Example 40: (Ahx)**-GIC+SRS-((tBu)A)-PPI-((N-Me)C)+-IPD++-NH2]
14 | 190 nM | G[Trx]GICSRS[tBuAla]PPI[NMeC]IPD-NH2 (disulfide 5-13; lactam N-16; also: TFA salt) [Example 69: G**-(TXA)-GIC+SRS-((tBu)A)-PPI-((N-Me)C)+-IPD++-NH2]

Target: recombinant rat MASP2 (amino acids 296-685, C-terminal His Tag) (rat), Q9JJS8
Assay: cell-based or functional assay

recombinant rat MASP2 (amino acids 296-685, C-terminal His Tag) (rat), Q9JJS8, sequence (Q9JJS8 other isoform, or with tags, fused parts or gaps limits assumed): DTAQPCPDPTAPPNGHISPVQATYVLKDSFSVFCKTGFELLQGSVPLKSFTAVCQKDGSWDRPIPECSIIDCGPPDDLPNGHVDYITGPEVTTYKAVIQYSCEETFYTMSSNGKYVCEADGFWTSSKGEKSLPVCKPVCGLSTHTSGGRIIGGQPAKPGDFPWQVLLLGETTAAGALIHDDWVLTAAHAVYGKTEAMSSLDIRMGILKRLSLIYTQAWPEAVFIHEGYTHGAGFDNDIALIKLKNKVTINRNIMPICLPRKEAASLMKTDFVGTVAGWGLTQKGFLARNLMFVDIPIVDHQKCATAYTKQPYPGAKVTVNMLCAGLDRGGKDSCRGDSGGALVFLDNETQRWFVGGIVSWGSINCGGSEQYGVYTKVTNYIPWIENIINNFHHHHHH

Row | rat MASP2 IC50 | Binder
15 | 1000 nM | GRCTKSIPPICFPD (modifications not checked) [Bicyclic SFTI-1: G**RC+TKSIPPIC+FPD**]

Target: T2, recombinant rat MASP1 (amino acids …)
Assay: cell-based or functional assay

Row | rat MASP1 IC50 | Binder
16 | 1000 nM | GRCTKSIPPICFPD (modifications not checked) [Bicyclic SFTI-1: G**RC+TKSIPPIC+FPD**]

Target: T3, recombinant human MASP1 (amino acids …)
Assay: cell-based or functional assay

Row | human MASP1 IC50 | Binder
17 | > 3000 nM | GRCTKSIPPICFPD (modifications not checked) [Bicyclic SFTI-1: G**RC+TKSIPPIC+FPD**]

Target: recombinant human MASP2 (amino acids 297-686, C-terminal His Tag) (human), O00187
Assay: cell-based or functional assay

recombinant human MASP2 (amino acids 297-686, C-terminal His Tag) (human), O00187, sequence (O00187 other isoform, or with tags, fused parts or gaps limits assumed): as the sequence (O00187 other isoform, or with tags, fused parts or gaps limits assumed) above

Row | human MASP2 IC50 | Binder
18 | > 3000 nM | GRCTKSIPPICFPD (modifications not checked) [Bicyclic SFTI-1: G**RC+TKSIPPIC+FPD**]
